{
  "source": "paper PMC3852661",
  "about": "(2013)",
  "test_in_all_cases": "MST",
  "key": {"MBP-SUFU-SH": {"target": "MBP-SUFU-SH (human, UniProt Q9UMX1 32-278; Q9UMX1 361-483)"}, "MBP-SUFU-FL": {"target": "T1, MBP-SUFU-FL (human, UniProt Q9UMX1 32-483)", "T1 chain": "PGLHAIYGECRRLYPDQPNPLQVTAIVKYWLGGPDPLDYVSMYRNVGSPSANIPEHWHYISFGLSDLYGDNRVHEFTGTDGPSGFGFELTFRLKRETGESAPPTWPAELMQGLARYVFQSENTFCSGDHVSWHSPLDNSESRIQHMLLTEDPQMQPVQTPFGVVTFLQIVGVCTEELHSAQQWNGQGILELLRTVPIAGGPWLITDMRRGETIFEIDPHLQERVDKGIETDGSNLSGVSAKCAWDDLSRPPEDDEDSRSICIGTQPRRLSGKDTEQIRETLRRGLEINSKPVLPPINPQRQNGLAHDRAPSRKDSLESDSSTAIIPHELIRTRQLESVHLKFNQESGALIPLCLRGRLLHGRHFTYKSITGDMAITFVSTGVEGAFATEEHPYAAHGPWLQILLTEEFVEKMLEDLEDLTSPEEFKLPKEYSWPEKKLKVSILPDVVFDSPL"}, "MBP-SUFU-Δ": {"target": "T2, MBP-SUFU-Δ (human, UniProt Q9UMX1 32-278; Q9UMX1 361-483)", "T2 chain": "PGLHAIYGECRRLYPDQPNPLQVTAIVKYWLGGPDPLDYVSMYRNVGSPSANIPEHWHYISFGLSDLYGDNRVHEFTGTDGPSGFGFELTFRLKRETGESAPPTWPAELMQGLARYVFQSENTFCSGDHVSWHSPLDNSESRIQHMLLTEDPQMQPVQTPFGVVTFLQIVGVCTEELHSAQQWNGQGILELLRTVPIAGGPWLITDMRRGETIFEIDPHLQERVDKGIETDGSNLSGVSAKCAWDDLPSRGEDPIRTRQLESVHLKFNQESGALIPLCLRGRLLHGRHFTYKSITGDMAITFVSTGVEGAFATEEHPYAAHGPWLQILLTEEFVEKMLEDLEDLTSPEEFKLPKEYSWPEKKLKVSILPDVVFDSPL"}},
  "note": "Where no end group is shown, it is not given here. The star is where a group is joined. 5FAM = O=C1OC2(c3ccc(O)cc3Oc3cc(O)ccc32)c2ccc(C(=O)*)cc21",
  "data": [
    {"binder": "5FAM-TSPGGSYGHLSIGTMSP", "note": "[FAM-GLI1p]", "values": [
      {"measurement": "Kd", "setting": "MBP-SUFU-SH", "result": 4.22, "unit": "µM"},
      {"measurement": "Kd", "setting": "MBP-SUFU-FL", "result": 4.5, "unit": "µM"},
      {"measurement": "Kd", "setting": "MBP-SUFU-Δ", "result": 4.47, "unit": "µM"}
    ]}
  ]
}
